Source: article PMC11018817, “Reciprocal antagonism of PIN1-APC/C^CDH1 governs mitotic protein stability and cell cycle entry” (Nature Communications, 2024)
Square brackets hold non-standard residues; d marks the D form. Ends that are not written are not given here. Pro(13C,15N) = 13C, 15N isotope-labelled Pro; pS = N[C@@H](COP(=O)(O)O)C(=O)O

Target: T1, 13C, 15N-enriched PIN1 (NMR sample) (human, UniProt Q13526 1-163, 13C, 15N-enriched)
T1 construct: PIN1, human; resonances of both the WW and the PPIase domain were followed; also called 15N-labeled PIN1
T1 sequence (Q13526 whole entry, the tested form may be a part): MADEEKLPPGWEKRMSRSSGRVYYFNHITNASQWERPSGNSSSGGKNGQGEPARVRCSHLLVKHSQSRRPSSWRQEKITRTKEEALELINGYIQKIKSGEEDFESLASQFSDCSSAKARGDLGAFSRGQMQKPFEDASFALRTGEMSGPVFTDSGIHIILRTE
Assay: NMR titration; series of 2D HSQC spectra of 0.1 mM 13C, 15N-enriched PIN1 titrated with the CDH1 phosphopeptide; 25 °C, pH 6.6, 20 mM potassium phosphate, 100 mM NaSO4, 10% D2O; chemical shift perturbation
Conditions: both partners purified

B1: CDH1-pS163 peptide (peptide)
peptide: LR[pS][Pro(13C,15N)]RKPTRKISKIPFKVLDAPE
notes: CDH1 (FZR1), human, residues 161-183; also called CDH1 phosphopeptide; phosphorylated peptide; source: synthetic peptide, bought: Pepmic
**Q.** Does B1 bind?
**A.** binds
